Measured values from publication PMC8022333 (The FEBS journal, 2018).

Target: the molecule itself
Assay: crystal structure

B1: vimentin coil 1B (residues 153–238) (domain or fragment)
chain: not shown
stoichiometry N: 8
